Assays:
bovine 20S proteasome = bovine 20S proteasome (bovine, UniProt Q2YDE4 1-246; Q3T0Y5 1-234; Q3ZCK9 1-261; Q3ZBG0 1-248; Q5E987 1-241; Q3T0X5 …); experiment: cell-based or functional assay
[1] = target: the molecule itself; experiment: mass photometry; monomer to dimer; His-PI31 diluted to 40 nM total monomer in PBS, recorded immediately after mixing (TwoMP, Refeyn); peaks at 36 to 37 and 56 to 59 kDa
[2] = target: T1, recombinant wildtype human PI31 (Proteasome Inhibitor of 31,000 Da) (human, UniProt Q92530 1-271); experiment: cryo-EM structure; purified hPI31 and bovine 20S mixed at a molar ratio of 5:1, 37 °C for 1 h in 20 mM Tris, pH 7.5, 5 mM MgCl2, 100 mM KCl, 1 mM DTT; latent closed-gate 20S; C1 map at 2.54 Å; conditions: both partners purified
T1 construct: PI31, product of the PSMF1 gene, human; The methods name a pET28a(+) vector with N-terminally tagged wildtype hPI31 and 'His-PI31 (wildtype)' for mass photometry; Exists in a monomer-dimer equilibrium; also called hPI31; hPI31^WT; source: E. coli, purified; not shown: His tag, N-terminal, kept
T1 sequence (looked up): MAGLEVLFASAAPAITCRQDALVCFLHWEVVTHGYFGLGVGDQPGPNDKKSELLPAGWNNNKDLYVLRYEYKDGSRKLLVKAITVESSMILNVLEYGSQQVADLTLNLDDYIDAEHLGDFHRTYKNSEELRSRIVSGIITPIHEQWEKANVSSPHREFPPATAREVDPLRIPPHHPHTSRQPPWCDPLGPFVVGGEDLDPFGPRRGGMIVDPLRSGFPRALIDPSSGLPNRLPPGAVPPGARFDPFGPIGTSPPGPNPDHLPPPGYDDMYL

Row | Binder | [monomer] at 50% inhibitory activity against SDS-activated 20S (50 nM), PI31 up to 10-fold molar excess (bovine 20S proteasome) [nM] | [monomer]/[M]T ratio [1] | inhibition of the catalytic activity of each subunit type (β1, β2, β5 peptide substrates), PI31 at 10- to 20-fold molar excess (bovine 20S proteasome) [%] | binding result [2]
1 | human PI31 V6R dimerization mutant (natural protein, UniProt Q92530 1-271, looked up, PI31, product of the PSMF1 gene, human; point mutation V6R in the FP domain, made on the pET28a(+)-HisPI31^wt template; also called hPI31^V6R; source: E. coli BL21 Star (DE3), purified (Ni-NTA); not shown: His tag, N-terminal, kept) MAGLERLFASAAPAITCRQDALVCFLHWEVVTHGYFGLGVGDQPGPNDKKSELLPAGWNNNKDLYVLRYEYKDGSRKLLVKAITVESSMILNVLEYGSQQVADLTLNLDDYIDAEHLGDFHRTYKNSEELRSRIVSGIITPIHEQWEKANVSSPHREFPPATAREVDPLRIPPHHPHTSRQPPWCDPLGPFVVGGEDLDPFGPRRGGMIVDPLRSGFPRALIDPSSGLPNRLPPGAVPPGARFDPFGPIGTSPPGPNPDHLPPPGYDDMYL | 108 | 0.54 |  | 
2 | human PI31 C-terminal domain, residues 152-271 (domain or fragment, UniProt Q92530 152-271, looked up) SSPHREFPPATAREVDPLRIPPHHPHTSRQPPWCDPLGPFVVGGEDLDPFGPRRGGMIVDPLRSGFPRALIDPSSGLPNRLPPGAVPPGARFDPFGPIGTSPPGPNPDHLPPPGYDDMYL | 200 |  | > 95 | 
3 | β5 subunit of the bovine 20S proteasome (natural protein, UniProt Q32KL2 60-263, looked up, Stood in the assay as a subunit of the assembled 20S proteasome; also called β5 active site; β5 catalytic site; source: purified from bovine red blood cells, as part of the 20S proteasome) TTTLAFKFRHGVIVAADSRATAGAYIASQTVKKVIEINPYLLGTMAGGAADCSFWERLLARQCRIYELRNKERISVAAASKLLANMVYQYKGMGLSMGTMICGWDKRGPGLYYVDSEGNRISGATFSVGSGSVYAYGVMDRGYSYDLEVEEAYDLARRAIYQATYRDAYSGGSVSLYHVREDGWIRVSSDNVADLHDKYSGSTH |  |  |  | binds
4 | β2 subunit of the bovine 20S proteasome (natural protein, UniProt Q2TBP0 44-277, looked up, Stood in the assay as a subunit of the assembled 20S proteasome; also called β2 active site; β2 catalytic site; source: purified from bovine red blood cells, as part of the 20S proteasome) TTIAGVVYKDGIVLGADTRATEGMVVADKNCSKIHFISPNIYCCGAGTAADTDMTTQLISSNLELHSLSTGRLPRVVTANRMLKQMLFRYQGYIGAALVLGGVDVTGPHLYSIYPHGSTDKLPYVTMGSGSLAAMAVFEDKFRPDMEEEEAKKLVSEAIAAGIFNDLGSGSNIDLCVISKSKLDFLRPYSVPNKKGTRFGRYRCEKGTNAVLTEKVTTLEIEVLEETVQTMDTS |  |  |  | binds

From paper PMC10319324, “Ηigh-resolution structure of mammalian PI31–20S proteasome complex reveals mechanism of proteasome inhibition” (The Journal of Biological Chemistry, 2023)
